In article PMC5301497, “Dimerisation induced formation of the active site and the identification of three metal sites in EAL-phosphodiesterases” (Scientific Reports, 2017):

B1: EAL domain of MucR (residues 425–685) (domain or fragment, Pseudomonas aeruginosa PAO1, UniProt Q9I310 425-685, looked up)
chain: SSMNANAQEQLQLLHDLRQALERRQLVLHYQPKVLAPNGPMIGVEALLRWEHPQHGLITPGQFLPLAEKTGLIVQIGEWVLDEACRQMRLWLDGGHADWNIAVNLSALQFAHAGLVDSVRNALLRHSLEPSHLILEVTESTAMRDADASLVILEQLSAMGVGISIDDFGTGYSSLLYLKRLPASELKIDRGFINELAHDSDDAAIVSAIVALGRTLNLKIVAEGVETEAQQEFLTRLGCNSLQGFLLGRPMPAEQLLASVA
notes: MucR (PA1727), Pseudomonas aeruginosa PAO1, EAL phosphodiesterase domain, residues 425-685; Cloned into pET-28a through NdeI and HindIII, which would give an N-terminal His6 tag with a thrombin site (surmised); no cleavage of the tag is described; Seen as the 'classic dimer' in the crystal, 2 molecules in the asymmetric unit; also called MucR^EAL; MucR-EAL; source: E. coli BL21 DE3, purified …
B2: EAL domain of PA3825 (residues 255–517) (domain or fragment, Pseudomonas aeruginosa PAO1, UniProt Q9HXH7 255-517, looked up)
chain: SRRVASPSSELRRALEANEFIPYYQPLSPGQGGRWIGVEVLMRWRHPREGLIRPDLFIPFAERSGLIVPMTRALMRQVAEDLGGHAGKLEPGFHIGFNISATHCHELALVDDCRELLAAFPPGHITLVLELTERELIESSEVTDRLFDELHALGVKIAIDDFGTGHSSLAYLRKFQVDCLKIDQSFVARIGIDTLSGHILDSIVELSAKLDLDIVAEGVETPEQRDYLAARGVDYLQGYLIGRPMPLESLLSSLTVQEGQGAS
notes: PA3825, Pseudomonas aeruginosa PAO1, EAL phosphodiesterase domain, residues 255-517; The residue numbers of the results (Glu39, Asp160, Asp161, Glu217, loop 160-170) cannot count on the full-length protein; they seem to count on the crystallised domain or the PDB entries; Cloned into the popinF vector; Seen as a 'closed dimer' in the crystal; also called PA3825^EAL; PA3825-EAL; source: E. coli …

What was measured:
[1] = molecular target: the molecule itself; test: crystal structure; MucR^EAL with c-di-GMP/Mg^2+, P2_(1), 2 molecules/AU, 2.27 Å; Morpheus Buffer System 1 pH 6.5, 21 °C
[2] = molecular target: the molecule itself; test: crystal structure; PA3825^EAL metal-free apo, tetragonal crystal P4_(3)2_(1)2, 1 molecule/AU, 1.60 Å

Protein | binding result [1] | binding result [2]
B1 | binds | 
B2 |  | binds
